In the supplement of paper PMC9170038:

Tested on: MS2 coat protein
Assay: apparent KD of MS2 coat protein; designed switch direction (-1 OFF switch, 1 ON switch): 1; higher = weaker reporter binding
Summary of the method: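 The reported apparent KD is a per-design median over clusters, from curve fits of normalised cluster fluorescence. Protein titrations used SNAP-549-labelled MS2 coat protein, doubled from 0.7 or 1.5 nM to 3 µM, in Tris-HCl pH 7.5 buffer with KCl, MgCl2, BSA, DTT, tRNA and Tween-20, with no input, 200 uM small-molecule ligand, or an oligonucleotide input. The RNA switches were transcribed on Illumina chips by stalled E. coli RNA polymerase.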

[1] = Eterna round: R95, input ligand: microRNA oligo, concentration not stated
[2] = input ligand: microRNA oligo, concentration not stated

Row | Sequence | apparent KD of MS2 coat protein (Eterna round: R95, input ligand: FMN 200 uM) | apparent KD of MS2 coat protein [1] | apparent KD of MS2 coat protein (Eterna round: R95, input ligand: none) | apparent KD of MS2 coat protein (input ligand: FMN 200 uM) | apparent KD of MS2 coat protein [2] | apparent KD of MS2 coat protein (input ligand: none)
1 | GAUAGACAUGAGGAUCACCCAUGUGACAAAACCACAGGAUAUCAUGCAGGCGUACCUGCAUGAGAAGGGUGAGACU [Ceriinaqu] (puzzle: Same State 1) | 29.7 nM | 35.3 nM | 22 nM |  |  | 
2 | GAUUAACAUGAGGAUCACCCAUGUCGUAUUAUGGGAGGAUAUACGUGGACCGUAGUCCGCGUAGAAGGCCUAAUUG [JL-ss1-3.21 janelle mod] (puzzle: Same State 1) |  | 76.4 nM |  |  |  | 
3 | GCAACGUGAUUAGGAUAUGCGAAACCCAUGGAAACUACACAUGAGGAUCACCCAUGUCCAUAGCCGCAGAAGGGAUCCGGAGCA [Eternabot solution 6] (Eterna round: R96, puzzle: Same State NG 2) |  |  |  | 32.1 nM | 90.3 nM | 147 nM
4 | GCAGGACGAUAAUAUAACUUCACAUGAGGAUCACCCAUGUCUCAGGAUAUGGAUCCUAAUUGGAUCCAGAAGGGAGCGUCCUGC [Fiskers NG3ss - 34] (Eterna round: R96, puzzle: Same State NG 3) |  |  |  | 14.5 nM | 25.9 nM | 35.1 nM
5 | GCAUCACAUGAGGAUCACCCAUGUCUUCGGAGUCGAGGAUAUGGUCACUGUAAACAGUGGCCAGAAGGCGAGAUGC [SS1 - Son of Teenbexe] (puzzle: Same State 1) |  | 41.4 nM |  |  |  | 
6 | GCCAACACAUGAGGAUAUGGCACCUUAUUGGUGCCAGAAGGCAUGUCUAUUGACAUGAGGAUCACCCAUGUAUUAUAGUUGGCA [Fiskers NG1ss - 14] (Eterna round: R96, puzzle: Same State NG 1) |  |  |  | 75.2 nM | 214 nM | 1210 nM
7 | GCCAUCGAAUGAGGAUAUGGCACCGUUUCGGUGCCAGAAGGCAUGUCAAUUGACAUGAGGAUCACCCAUGUAUUAUCGAUGGCA [JL Fiskers NG1ss - 33 mod 5] (Eterna round: R96, puzzle: Same State NG 1) |  |  |  | 119 nM | 712 nM | 1640 nM
8 | GCCGCAAGGGCAGGAUAUGGGUCCAGAGUGCAAAUACACUCUGGUACAUGAGGAUCACCCAUGUCCCAGAAGGGCCCAAGCGGC [Teerledion] (Eterna round: R96, puzzle: Same State NG 2) |  |  |  | 13.9 nM | 71 nM | 127 nM
9 | GCGAAAGCGGUAGGAUAUCUAGGAUAUGGGAAGACCUAAGGUUGGAAGUCACUUCACCCAGAAGGAGAGAAGGACACCGAAAGG [pwkr ssNG2 2FMN + F9.2] (Eterna round: R96, puzzle: Same State NG 2) |  |  |  | 36.6 nM | 113 nM | 134 nM
10 | GCGAAGAGGUAAGGAUAUGCAUGGCGGAGACAUGAGGAUCACCCAUGUUGGAGACGAAAUCUAGGGUAGAAGGUACCGGGAAGC [ssng2 v2 b] (Eterna round: R96, puzzle: Same State NG 2) |  |  |  | 75.4 nM | 70.2 nM | 110 nM
11 | GCGGAACAGGCCGACAUGAGGAUCACCCAUGUGGCCUCAUGUCAGGAUAUCGGGAAGAAGAAAACCGAGAAGGGACGGUGACGC [AK SSNG3-V2-33.2] (Eterna round: R96, puzzle: Same State NG 3) |  |  |  | 23.4 nM | 9.43 nM | 10.1 nM
12 | GCGGAACCUGACAUGAGGAUCACCCAUGUUCCGGAAACGGCACAGGAUAUCUGUCCGAAAAGGUCAGAGAAGGGUGUAAACCGC [Fiskers NG3ss - 97] (Eterna round: R96, puzzle: Same State NG 3) |  |  |  | 29 nM | 325 nM | 210 nM
13 | GCGGACCUCACAUGAGGAUCACCCAUGUUGCGGAGACGCAAUGAGGAUAUCGAUGGGUUUCCCGUCGAGAAGGCAUAAAUCCGC [JL SSNG3 3.93 mod 4] (Eterna round: R96, puzzle: Same State NG 3) |  |  |  | 109 nM | 44.5 nM | 56.6 nM
14 | GCUACAUGAGGAUCACCCAUGUGUGCGUGGGAGUGAGUGGCUUAGGAUAUCUAUGACUUGAGUUGAGAGAAGGAGGAUUGCUGU [SS-NG3-LRO12] (Eterna round: R96, puzzle: Same State NG 3) |  |  |  | 105 nM | 82.6 nM | 118 nM
15 | GCUACGGCAGUAGGAUAUGUAGGAUAUGGCGAGAGCUAAGCUUGGAAGUCACUUCAGCCAGAAGGACAGAAGGACACCGUGAGG [pwkr ssNG2 2FMN + F9.16] (Eterna round: R96, puzzle: Same State NG 2) |  |  |  | 125 nM | 22.5 nM | 24.7 nM
16 | GCUAGAAAUAAAGCCAACAUGAGGAUCACCCAUGUAUGUUGGUAGGAUAUCGUAUGCAAAGCAUACGAGAAGGGCUAAUCUAGC [Mat - Same State NG 3 - JL Mod - D66] (Eterna round: R96, puzzle: Same State NG 3) |  |  |  | 90.8 nM | 57.4 nM | 90.2 nM
